The values below come from US12036274B2, “Recombinant MPT protein derived from MPT63 and MPT64 and use thereof” (priority 2021, dated 2024).

For one assay, the system named is TBK1 and p47phox. Description: Co-immunoprecipitation of rMPT63 in THP-1 cells. It is filed as cell-based, human. The following applies: 5 μg/ml.
For a further assay, the target named is T1, p47phox (Homo sapiens, UniProt P14598).
T1 sequence (P14598 1-390): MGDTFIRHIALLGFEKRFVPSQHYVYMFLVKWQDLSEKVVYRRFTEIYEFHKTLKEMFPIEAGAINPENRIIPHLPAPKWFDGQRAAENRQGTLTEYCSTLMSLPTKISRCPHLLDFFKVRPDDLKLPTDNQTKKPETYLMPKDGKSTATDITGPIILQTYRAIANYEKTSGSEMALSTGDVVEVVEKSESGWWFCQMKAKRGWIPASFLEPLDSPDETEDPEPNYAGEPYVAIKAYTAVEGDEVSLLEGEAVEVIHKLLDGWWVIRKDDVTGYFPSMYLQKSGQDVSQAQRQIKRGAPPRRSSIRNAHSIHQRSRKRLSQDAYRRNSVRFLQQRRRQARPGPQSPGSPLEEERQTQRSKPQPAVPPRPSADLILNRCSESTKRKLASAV
Conditions: read-out: Kd of interaction with p47phox; fluorescently labeled MPT63 titrated with unlabeled p47phox, 25° C., pH 7.4.

The next assay concerns the target TBK1 (Homo sapiens, UniProt Q9UHD2). The following applies: read-out: Kd of interaction with TBK1; fluorescently labeled protein titrated with unlabeled TBK1, curve fitting, 25° C., pH 7.4.
For a further assay, the target named is T2, TBK1 and HK2 (Homo sapiens, UniProt Q9UHD2).
T2 construct: endogenous in cells; host or cells: THP-1
T2 sequence (Q9UHD2 1-729): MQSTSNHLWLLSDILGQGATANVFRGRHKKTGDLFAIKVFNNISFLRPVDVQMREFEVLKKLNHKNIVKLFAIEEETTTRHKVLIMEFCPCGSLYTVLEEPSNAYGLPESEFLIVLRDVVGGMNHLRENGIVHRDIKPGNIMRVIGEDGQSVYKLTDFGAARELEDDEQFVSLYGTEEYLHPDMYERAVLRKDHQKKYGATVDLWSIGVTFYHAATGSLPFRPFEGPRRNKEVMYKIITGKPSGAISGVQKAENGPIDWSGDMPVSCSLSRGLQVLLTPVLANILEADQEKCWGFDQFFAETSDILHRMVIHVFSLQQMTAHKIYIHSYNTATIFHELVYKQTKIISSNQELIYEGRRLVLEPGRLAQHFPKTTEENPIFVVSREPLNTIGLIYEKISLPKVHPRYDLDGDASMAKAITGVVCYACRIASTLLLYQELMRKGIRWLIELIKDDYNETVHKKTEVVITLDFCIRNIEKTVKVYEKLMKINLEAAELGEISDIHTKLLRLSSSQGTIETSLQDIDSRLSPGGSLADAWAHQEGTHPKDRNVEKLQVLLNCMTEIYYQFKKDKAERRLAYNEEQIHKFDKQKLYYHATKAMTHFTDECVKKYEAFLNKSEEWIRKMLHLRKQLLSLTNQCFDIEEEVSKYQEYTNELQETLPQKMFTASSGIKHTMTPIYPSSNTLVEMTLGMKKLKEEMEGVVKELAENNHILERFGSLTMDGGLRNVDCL
The experiment in a line: Co-immunoprecipitation of rMPT64 in THP-1 cells. It is filed as cell-based. The following applies: 5 μg/ml.

The target of another assay is HK2 (Homo sapiens, UniProt P52789).
HK2, sequence (P52789 whole entry): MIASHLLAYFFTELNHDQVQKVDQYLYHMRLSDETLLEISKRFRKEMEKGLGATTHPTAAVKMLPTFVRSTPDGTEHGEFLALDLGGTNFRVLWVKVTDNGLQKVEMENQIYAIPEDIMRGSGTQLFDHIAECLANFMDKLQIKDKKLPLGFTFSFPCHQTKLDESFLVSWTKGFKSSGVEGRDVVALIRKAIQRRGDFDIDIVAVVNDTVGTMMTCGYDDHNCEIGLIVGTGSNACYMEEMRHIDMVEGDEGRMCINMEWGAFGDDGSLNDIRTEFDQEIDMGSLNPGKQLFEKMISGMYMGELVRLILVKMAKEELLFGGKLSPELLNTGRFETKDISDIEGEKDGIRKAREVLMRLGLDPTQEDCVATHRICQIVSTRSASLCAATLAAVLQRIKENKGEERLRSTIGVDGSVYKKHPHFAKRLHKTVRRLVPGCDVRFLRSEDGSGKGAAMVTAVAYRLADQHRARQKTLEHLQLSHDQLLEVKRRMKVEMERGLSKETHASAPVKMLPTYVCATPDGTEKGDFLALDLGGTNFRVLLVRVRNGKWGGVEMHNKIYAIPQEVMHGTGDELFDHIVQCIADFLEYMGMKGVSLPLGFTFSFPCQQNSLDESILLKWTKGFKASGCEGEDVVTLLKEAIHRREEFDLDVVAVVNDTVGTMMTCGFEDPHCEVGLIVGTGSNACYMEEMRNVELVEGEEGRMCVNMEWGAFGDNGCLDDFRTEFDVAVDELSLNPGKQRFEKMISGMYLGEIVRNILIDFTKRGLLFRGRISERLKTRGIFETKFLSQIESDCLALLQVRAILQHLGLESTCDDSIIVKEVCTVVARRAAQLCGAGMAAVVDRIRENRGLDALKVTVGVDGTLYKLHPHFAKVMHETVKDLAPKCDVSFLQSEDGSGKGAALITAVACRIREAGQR

B1: MPT63: secreted antigen of Mycobacterium tuberculosis, recombinant, purified with the 6×His bacterial expression system (protein)
chain: AYPITGKLGSELTMTDTVGQVVLGWKVSDLKSSTAVIPGYPVAGQVWEATATVNAIRGSVTPAVSQFNARTADGINYRVLWQAAGPDTISGATIPQGEQSTGKIYFDVTGPSPTIVAMNNGMEDLLIWEP
modifications: left off: small tags and cut ends
notes: secreted antigen of Mycobacterium tuberculosis, recombinant, purified with the 6×His bacterial expression system
In general, Kd refers to the constant that tells how readily two partners part at equilibrium. For B1, the “endogenous interaction with TBK1 and p47phox” value with TBK1 and p47phox is “endogenously interacted”. The dissociation constant Kd with p47phox was found to be 345 nM; in the assay with TBK1, 178 nM.

B2: MPT64: secreted antigen of Mycobacterium tuberculosis, recombinant, produced in a bacterial expression system (protein)
chain: APKTYCEELKGTDTGQACQIQMSDPAYNINISLPSYYPDQKSLENYIAQTRDKFLSAATSSTPREAPYELNITSATYQSAIPPRGTQAVVLKVYQNAGGTHPTTTYKAFDWDQAYRKPITYDTLWQADTDPLPVVFPIVQGELSKQTGQQVSIAPNAGLDPVNYQNFAVTNDGVIFFFNPGELLPEAAGPTQVLVPRSAIDSMLA
modifications: left off: small tags and cut ends
notes: secreted antigen of Mycobacterium tuberculosis, recombinant, produced in a bacterial expression system
For B2, the “interaction with phosphorylated TBK1 (S172)” value in the assay with TBK1 and HK2 is listed as “interacts”. Besides, the values for the dissociation constant Kd in the assay with TBK1 and with HK2 were 193 nM and 134 nM, respectively.
